In paper PMC6948101 (Nature, 2019):

Target: the molecule itself
Assay: SEC-MALS

B1: DHR10-mica6-NC (designed binder)
chain: GSGGSSEVLELAIRLIKEVVENAQREGYDISEAAAAAAEAFAAVAEAAKAAGITSSEVLELAIRLIKEVVENAQREGYDISEAAAAAAEAFAAVAEAAKAAGITSSEVLELAIRLIKEVVENAQREGYDISEAAAAAAEAFAAVAEAAKAAGIASSEVLELAIRLIKEVVENAQREGYDISEAAAAAAEAFAAVAEAAKAAGITSSEVLELAIRLIKEVVENAQREGYDISEAAAAAAEAFAAVAEAAKAAGIASSEVLELAIRLIKEVVENAQREGYDISEAAAAAAEAFAAVAEAAKAAGIGWE
stoichiometry N: 2.1 times the MW of a monomer
